Data: article PMC5465072 (2017)
Square brackets hold non-standard residues; d marks the D form. Ends that are not written are not given here. Tyr(3-NO2) = N[C@@H](Cc1ccc(O)c([N+](=O)[O-])c1)C(=O)O; Phe(4-NO2) = N[C@@H](Cc1ccc([N+](=O)[O-])cc1)C(=O)O; Tyr(3,5-Br2) = N[C@@H](Cc1cc(Br)c(O)c(Br)c1)C(=O)O; Phe(4-CN) = N#Cc1ccc(C[C@H](N)C(=O)O)cc1; Phe(4-Cl) = N[C@@H](Cc1ccc(Cl)cc1)C(=O)O; Phe(4-F) = N[C@@H](Cc1ccc(F)cc1)C(=O)O; hPhe = N[C@@H](CCc1ccccc1)C(=O)O; Phg = N[C@H](C(=O)O)c1ccccc1

T1: CMG2 38-218 (Homo sapiens, UniProt P58335)
T1 chain: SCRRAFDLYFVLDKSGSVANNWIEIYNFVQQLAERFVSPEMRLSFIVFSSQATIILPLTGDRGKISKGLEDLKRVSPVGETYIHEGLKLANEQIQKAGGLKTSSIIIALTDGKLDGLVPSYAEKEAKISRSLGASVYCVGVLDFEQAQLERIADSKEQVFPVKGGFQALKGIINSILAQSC


Target: T1, CMG2 38-218
Test: microscale thermophoresis

Row | Binder | Kd
1 | CLR[Tyr(3-NO2)]T [CLR(3-nitro-Y)T] | 112 µM
2 | CLR[dF]T [CLR(D-Phe)T] | 31 µM
3 | CLR[Phe(4-NO2)]T [CLR(4-nitro-F)T] | 36.2 µM
4 | CLR[Phe(4-F)]T [CLR(4-fluoro-F)T] | 49.9 µM
5 | CLR[Phe(4-Cl)]T [CLR(4-Cl-F)T] | 14 µM
6 | CLR[Phg]T [CLR(phenylglycine)T] | 59.6 µM
7 | CLR[hPhe]T [CLR(homophenylalanine)T] | 74 µM
8 | CLR[Phe(4-CN)]T [CLR(4-cyano-F)T] | 61.4 µM
9 | CLR[Tyr(3,5-Br2)]T [CLR(3,5-dibromo-Y)T] | 60 µM

Target: T1, CMG2 38-218
Test: sandwich ELISA (competition with His6-PA 488-735)

Row | Binder | IC50
10 | CLRPT | 153 µM
